Data published in patent publication US12365732.

Experiments:
[1] = molecular target: human CD96 on primary human immune cells (PBMCs, NK cells, CD4+ T cells) (human) (UniProt P40200); test: FACS, Ab 16 nM
[2] = molecular target: human CD96 on primary human immune cells (PBMCs, NK cells, CD4+ T cells) (human) (UniProt P40200); test: FACS, Ab 0.64 nM
[3] = molecular target: human CD96 on primary human immune cells (PBMCs, NK cells, CD4+ T cells) (human) (UniProt P40200); test: FACS, Ab 80 nM
[4] = molecular target: human CD96 on primary human immune cells (PBMCs, NK cells, CD4+ T cells) (human) (UniProt P40200); test: FACS, Ab 0.128 nM
[5] = molecular target: human CD96 on primary human immune cells (PBMCs, NK cells, CD4+ T cells) (human) (UniProt P40200); test: cell-based or functional assay
[6] = molecular target: human CD96 on primary human immune cells (PBMCs, NK cells, CD4+ T cells) (human) (UniProt P40200); test: FACS, Ab 3.2 nM
[7] = molecular target: human CD96 on primary human immune cells (PBMCs, NK cells, CD4+ T cells) (human) (UniProt P40200); test: FACS, Ab 0.00512 nM
[8] = molecular target: human CD96 on primary human immune cells (PBMCs, NK cells, CD4+ T cells) (human) (UniProt P40200); test: FACS, % positive curve
[9] = molecular target: human CD96 on primary human immune cells (PBMCs, NK cells, CD4+ T cells) (human) (UniProt P40200); test: FACS, Ab 0.0256 nM

Binder	% positive [1] [%]	% positive [2] [%]	% positive [3] [%]	% positive [4] [%]	Human NK cell IFNγ secretion (fold over background), Ab 0.0032 nM [5] [fold]	Human NK cell IFNγ secretion (fold over background), Ab 0.016 nM [5] [fold]	Human NK cell IFNγ secretion (fold over background), Ab 0.08 nM [5] [fold]	Human NK cell IFNγ secretion (fold over background), Ab 0.4 nM [5] [fold]	Human NK cell IFNγ secretion (fold over background), Ab 2 nM [5] [fold]	Human NK cell IFNγ secretion (fold over background), Ab 10 nM [5] [fold]	Human NK cell IFNγ secretion (fold over background), Ab 50 nM [5] [fold]	Human NK cell IFNγ secretion (fold over background), Ab 250 nM [5] [fold]	Human NK cell IFNγ secretion, EC50 [5] [nM]	% positive [6] [%]	% positive [7] [%]	EC50 [8] [nM]	% positive [9] [%]
mAb1.v7.NGS10 IgG (antibody, V domains shown) VH: EVQLVQSGAEVKKPGASVKVSCKASGFTFTNNFMHWVRQAPGQGLEWIGFIHANSGITNINEKFKNRVTMTTDTSTSTAYMELRSLRSEDTAVYYCRSDGIYEGYFDYWGQGTLVTVSS VL: DIQLTQSPSSLSASVGDRVTITCKASQNVGTAIVWYQQKPGKAPKVLIYSASTRYTGVPSRFSGSGSGTDFTLTISSLQPEDFATYYCQQYSSSPLTFGQGTKVEIKG	97.1	88.8	97.7	66.7	1	1.24	1.36	1.81	2.12	1.94	2.05	1.87	0.084	93.8	6.1	0.069	16.9
mAb1.v7.NGS8 IgG (antibody, V domains shown) VH: EVQLVQSGAEVKKPGASVKVSCKASGFTFTNNFMHWVRQAPGQGLEWIGMIHANSGITNINEKFKNRVTMTTDTSTSTAYMELRSLRSEDTAVYYCRSDGIYEGYFDYWGQGTLVTVSS VL: DIQLTQSPSSLSASVGDRVTITCKASQNVGTAIVWYQQKPGKAPKVLIYSASTRYTGVPSRFSGSGSGTDFTLTISSLQPEDFATYYCQQYSSSPLTFGQGTKVEIKG	96.2	89.3	97.8	64.2										92.3	8.6	0.072	22
mAb1.v7.NGS9 IgG (antibody, V domains shown) VH: EVQLVQSGAEVKKPGASVKVSCKASGFTFTNNFMHWVRQAPGQGLEWIGMIHANSGITNINEKFKNRVTMTTDTSTSTAYMELRSLRSEDTAVYYCRSDGVYEGYFDYWGQGTLVTVSS VL: DIQLTQSPSSLSASVGDRVTITCKASQNVGTAIVWYQQKPGKAPKVLIYSASTRYTGVPSRFSGSGSGTDFTLTISSLQPEDFATYYCQQYSSSPLTFGQGTKVEIKG	97.1	90.8	97.8	64.7										95.1	8.2	0.071	22.5
mAb1.v7.NGS11 IgG (antibody, V domains shown) VH: EVQLVQSGAEVKKPGASVKVSCKASGFTFTNNFMHWVRQAPGQGLEWIGFIHANSGITNINEKFKNRVTMTTDTSTSTAYMELRSLRSEDTAVYYCRSDGVYEGYFDYWGQGTLVTVSS VL: DIQLTQSPSSLSASVGDRVTITCKASQNVGTAIVWYQQKPGKAPKVLIYSASTRYTGVPSRFSGSGSGTDFTLTISSLQPEDFATYYCQQYSSSPLTFGQGTKVEIKG	96.7	89.7	97.2	61.1										94.2	5.4	0.083	11.6
h10G1 IgG (humanized 10G1) (antibody, V domains shown) VH: EIQLVQSGSELKKPGASVKVSCKASGYPFTTYGMSWVRQAPGQGLEWMGWINTDSGVPTYADDFKGRFVFSLDTSVSTAYLQISSLKAEDTAVYFCARNIYYGWGNFDYWGQGTLVTVSS VL: EIVMTQSPDFQSVTPKEKVTITCRASQDIYRNLHWYQQKPDQTPKLLIKHASDSISGIPSRFSGSGSGTDFTLTINSLEAEDAAAYYCLQGYSMPYTFGGGTKVEIKG	81.4	53.5	88.7	39.1	1	1.13	1.38	1.96	2.08	2.19	2.21	1.87	0.112	64.4	5.4	0.28	14.6
